# From paper PMC6321396
# Columns and labels:
# [1] = molecular target: ApHt_20, IsCT-like antimicrobial venom peptide from Mesobuthus martensii Karsch (Mesobuthus martensii Karsch)
# [2] = molecular target: ApHt_20, IsCT-like antimicrobial venom peptide from Mesobuthus martensii Karsch (Mesobuthus martensii Karsch); remark: listed apart in the source
substance,measurement,setting,value
"HAP-1, short-chain highly acidic peptide from Mesobuthus martensii Karsch",agar diffusion assay against Staphylococcus aureus AB94004: minimum concentration of HAP-1 required to completely inhibit the inhibition zone made by 40 nM ApHt 20,[1],140 nM
same,MIC of ApHt 20 against Staphylococcus aureus AB94004 in the presence of 32 μM HAP-1 (8 μM without HAP-1),[2],16 µM
